These are literature values, as cited in patent US6368617B1, “Dietary supplement” (Reliv' International, Inc., priority 2001, dated 2002).

Where two headings read alike, the source gives them in different places.

On to “IGF-1: growth-promoting metabolite of hGH, somatomedin C, commercially known as Insulin-like Growth Factor type 1”, for which the half-life entry (serum) is reported as “about 20 hours”. Consider “Growth Hormone: endocrine hormone produced by the pituitary, also known as somatotropin”, for which the half-life result (circulating) is on record as “about 20 minutes”.
